Results: patent US6946588B2, “Nucleic acid encoding a modified threonine deaminase and methods of use” (Monsanto Technology LLC, priority 1996, dated 2005)
Where a chain is given by its changes, count along the chain named. Names may count otherwise. Like-named read-outs stand apart in the source and are kept apart here.

B1: BktB β-ketothiolase (Cupriavidus necator H16) (protein)
chain: TREVVVVSGVRTAIGTFGGSLKDVAPAELGALVVREALARAQVSGDDVGHVVFGNVIQTEPRDMYLGRVAAVNGGVTINAPALTVNRLCGSGLQAIVSAAQTILLGDTDVAIGGGAESMSRAPYLAPAARWGARMGDAGLVDMMLGALHDPFHRIHMGVTAENVAKEYDISRAQQDEAALESHRRASAAIKAGYFKDQIVPVVSKGRKGDVTFDTDEHVRHDATIDDMTKLRPVFVKENGTVTAGNASGLNDAAAAVVMMERAEAERRGLKPLARLVSYGHAGVDPKAMGIGPVPATKIALERAGLQVSDLDVIEANEAFAAQACAVTKALGLDPAKVNPNGSGISLGHPIGATGALITVKALHELNRVQGRYALVTMCIGGGQGIAAIFERI
B2: E. coli wild-type: wild-type E. coli biosynthetic threonine deaminase encoded by the ilvA gene (SEQ ID NO:1) (protein, listed as Escherichia coli)
chain: MADSQPLSGAPEGAEYLRAVLRAPVYEAAQVTPLQKMEKLSSRLDNVILVKREDRQPVHSFKLRGAYAMMAGLTEEQKAHGVITASAGNHAQGVAFSSARLGVKALIVMPTATADIKVDRLRGFGGEVLLHGANFDEAKRKAIELSQQQGFTWVPPFDHPMVIAGQGTLALELLQQDAHLDRVFVPVGGGGLAACVAVLIKQLMPQIKVIAVEAEDSACLKAALDAGHPVDLPRVGLFAEGVAVKRIGDETFRLCQEYLDDIITVDSDAICAAMKDLFEDVRAVAEPSGALALAGMKKYIALHNIRGERLAHILSGANVNFHGLRYVSERCELVEQREALLAVTIPEEKGSFLKFCQLLGGRSVTEFNYRFADAKNACIFVGVRLSRGLEERKEILQMLNDGGYSVVDLSDDEMAKLHVRYMVGGRPSHPLQERLYSFEFPESPGALLRFLNTLGTYWNISLFHYRSHGTDYGRVLAAFELGDHEPDFETRLNELGYDCHDETNNPAFRFFLAG
B3: E. coli L481F (protein)
chain: B2 chain with R120A, L121V, R140A, C195G, V334G, L481F

Assays:
[1] = substrate: CC(C)(COP(=O)(O)OP(=O)(O)OC[C@H]1O[C@@H](n2cnc3c(N)ncnc32)[C@H](O)[C@@H]1OP(=O)(O)O)[C@@H](O)C(=O)NCCC(=O)NCCS; experiment: purified protein, by the assay type; conditions: other: thiolysis, 25° C., β-ketocaproyl-CoA fixed at 60 μM
Protocol: To enhance further our understanding of the kinetic characteristics of BktB β-ketothiolase, a thorough kinetic analysis of the enzyme's thiolysis activity was conducted using purified protein. The assay to determine the kinetic parameters Km and Vmax for βketobutyryl-CoA (C4), β-ketovaleryl-CoA (C5), and β-ketocaproyl-CoA (C6), was performed at 25° C. by the in situ generation of the β-keto compounds from their corresponding trans-2,3-enoyl-CoAs essentially as described by Haywood et al. (1988). Utilization of variable substrate concentrations permitted the determination of the descriptive kinetic parameters of the β-ketothiolase.
The assay mixture (1 ml final volume) contained 150 mM EPPS, pH 8.0, 50 mM MgCl2, 1.5 mM pyruvate, 0.4 mM NAD+, and a coupling enzyme cocktail of three units crotonase, five units β-hydroxyacyl-CoA dehydrogenase, and 10 units lactic dehydrogenase. The enoyl-CoA was added to this mixture and the absorbance at 304 nm was monitored until it reached a plateau (typically about 5 min). CoA was added to this mixture, followed by BktB β-ketothiolase to initiate the reaction. The decrease in absorbance at 304 nm due to the thiolysis of the β-ketoacyl-CoA was utilized as a direct measure of activity. […] Reaction rates were calculated in the steady-state within the first minute following initiation. […]

[2] = test system: E. coli biosynthetic threonine deaminase; conditions: for Threonine Deaminase Specific Activity / % activity relative to the results with 0 mM isoleucine: 10 mM threonine; for Hill Coefficient (n) / Km: fit to Hill equation; for Km: read-out: Km Threonine
Protocol: Kinetic analysis of the wild-type and mutant threonine deaminases was performed by determining threonine turnover catalyzed by these threonine deaminases as assayed by the method of Burns (1971). Specifically, α-keto-butyrate production was monitored by coupling to L-lactic dehydrogenase (LDH)-catalyzed reduction of the α-ketoacid in the presence of NADH to form (L)-2-hydroxybutyrate and NAD+. The disappearance of NADH absorbance at 340 nm provides a measure of the threonine deaminase activity. Final reaction conditions were 100 mM KPi, pH 7.8, 0.20 mM NADH, 10 units/mL LDH (defined as LDH turnover of α-ketobutyrate, not pyruvate), and variable threonine. R. Rubrum was grown according to Brandl et al., 1989. The growth and induction of E. coli cells overexpressing the mutant and wild-type biosynthetic threonine deaminases is described above. Cell extracts of R. Rubrum and E. coli were prepared by sonicating pelleted cells (≈0.5 g from 100 ml of culture) in 2 ml of 100 mM KPi, pH 7.0, containing 5% (v/v) glycerol. After centrifugation to remove cellular debris, protein concentrations were determined by the method of Bradford (1976), and threonine deaminase activity was measured.
The kinetic parameters Km and Vmax, and the level of positive cooperativity, i.e., the deviation from normal saturation kinetics where at low substrate concentration the substrate turnover rate is less than a non-cooperative system, were determined. These values were found by fitting the rate data to the Hill equation (Equation 1), which incorporates the coefficient n into the normal Michaelis-Menten equation (n=1 for a non-cooperative system).
In addition to the kinetic parameters, the degree of inhibition of threonine deaminase by isoleucine was also measured at fixed levels of threonine.

threonine deaminase = experiment: Threonine deaminase activity in extracts of transformed E. coli DH5α (in vivo analysis of cloned ilvA genes); type: biochemical; conditions: 0 mM isoleucine, 10 mM threonine
Description: E. coli DH5α cells were transformed with pJM9238 (Kidwell et al., 1995) containing the PHB operon of A. eutrophus by CaCl2/heat shock treatment The PHB operon was under the inducible control of the ptac promoter. E. coli containing pJM9236 were used as a background control with respect to threonine deaminase activity.
E. coli DH5α cells were also cotransformed by CaCl2/heat shock treatment with pJM9238 and pMON25660 (FIG. 5) containing the wild-type E. coli threonine deaminase, under ptrc inducible control.
In a third experiment, E. coli DH5α cells were cotransformed with pJM9238 and pMON25683 (FIG. 11) containing the mutant E. coli ilvA466 (L481F) threonine deaminase, under ptrc inducible control.
(§1) Transformed cells were grown on M9 minimal salts plus 0.2% gluconate and 25 mM L-threonine. At early log phase, the cells were induced with IPTG to induce expression of all four enzymes (i.e., PhbA, PhbB, PhbC, and IlvA or IlvA466). […] The level of α-ketobutyrate was determined by reverse-phase HPLC isolation of the dinitrophenylhydrazine derivative of the α-ketoacid according to Qureshi et al., (1982). Quantitation was based on peak integration comparisons to a standard curve.

E. coli DH5α cells = experiment: Intracellular α-ketobutyrate in transformed E. coli DH5α (HPLC of dinitrophenylhydrazine derivative); type: cell-based; conditions: for [α-ketobutyrate]: 1 ml extract from approximately 50 mg cells, M9 + 0.2% gluconate + 25 mM L-threonine; for α-ketobutyrate level relative to cells containing no overexpressed threonine deaminase: transformed E. coli DH5α
Protocol: as §1

soybean callus = experiment: Expression and activity of E. coli IlvA in stably transformed soybean callus; type: cell-based; conditions: soybean calli 518-4, 518-15, 518-16, 518-17 transformed with pMON25668
Description: As shown above, the E. coli IlvA proteins can be functionally expressed in a plant transient expression system. In order to test the expression of a biosynthetic threonine deaminase in a stably transformed plant tissue, non-differentiating callus derived from soybean hypocotyl tissue was transformed with a plasmid containing the E. coli wild-type ilvA threonine deaminase gene using Agrobacterium tumefaciens ABI (Koncz and Schell, 1986).
Soybean callus tissue was transformed with binary Ti plasmid pMON25668 (FIG. 17). Plasmid pMON25668 contains the e35S-expressed, plastid-targeted (ARABSSU1A) E. coli wild-type ilvA threonine deaminase gene, the e35S-expressed, plastid-targeted (ARABSSU1A) A. eutrophus phbA (β-ketothiolase) gene, and the e35s-expressed neomycin phosphotransferase type II (NptII) gene for kanamycin resistance. […] contains two border sequences for T-DNA transfer into the plant chromosome. The right border sequence is the only border required for T-DNA transfer into the plant; however, including the left border sequence terminates T-DNA integration at that point, thereby limiting the unnecessary incorporation of “extra” DNA sequences into the plant chromosome. pMON25668 also contains the minimun sequence of ori-322 for replication and maintenance in E. coli as well as ori-V of the broad host origin RK2 for replication in Agrobacterium. […]

Row | Molecule | Km [1] [mM] | Threonine Deaminase Specific Activity ([2]; 0 mM isoleucine) [u/mg] | % activity relative to the results with 0 mM isoleucine ([2]; 1.0 mM isoleucine) [%] | Threonine Deaminase Specific Activity ([2]; 1.0 mM isoleucine) [u/mg] | % activity relative to the results with 0 mM isoleucine ([2]; 10.0 mM isoleucine) [%] | Threonine Deaminase Specific Activity ([2]; 10.0 mM isoleucine) [u/mg] | Hill Coefficient (n) [2] | Km [2] [mM] | Threonine Deaminase Specific Activity (threonine deaminase) [u/mg] | [α-ketobutyrate] (E. coli DH5α cells) [µM] | α-ketobutyrate level relative to cells containing no overexpressed threonine deaminase (E. coli DH5α cells) | expression (Western blot) and enzymatic activity in transformed calli (soybean callus)
1 | B1 | 0.053 ± 0.006 | – | – | – | – | – | – | – | – | – | – | –
2 | B2 | – | 16.7 | < 2 | 0.3 | < 2 | 0.3 | 1.5 ± 0.2 | 5 ± 1 | 4.20 | 41.8 | about a three-fold increase | can be expressed and maintain enzymatic activity
3 | B3 | – | 20.3 | 56 | 11.3 | < 2 | 0.3 | 1.22 ± 0.01 | 3.08 ± 0.03 | 0.59 | 579 | greater than 40 times | –
